Test results as given in PMC9286290, “Active PD-L1 incorporation within HIV virions functionally impairs T follicular helper cells” (PLoS Pathogens, 2022).

Molecular target: T1, recombinant full-length PD-L1 protein (Phe19-Thr290) (UniProt Q9NZQ7 19-290)
T1 construct: Programmed Death-Ligand 1 (PD-L1), residues Phe19-Thr290; also called flPD-L1; source: bought: Amsbio (TP710226)
Experiment: BLI; FortéBio Octet K2; p17 or p24 immobilised on aminopropylsilane biosensors, saturated with BSA; association and dissociation 8 min each; PBS with 0.01% BSA and 0.002% Tween-20, 1,000 rpm; for kinetics flPD-L1 from 0 to 450 nM, BSA as reference, 1:1 model
Details: both partners purified

T1 sequence (Q9NZQ7 19-290): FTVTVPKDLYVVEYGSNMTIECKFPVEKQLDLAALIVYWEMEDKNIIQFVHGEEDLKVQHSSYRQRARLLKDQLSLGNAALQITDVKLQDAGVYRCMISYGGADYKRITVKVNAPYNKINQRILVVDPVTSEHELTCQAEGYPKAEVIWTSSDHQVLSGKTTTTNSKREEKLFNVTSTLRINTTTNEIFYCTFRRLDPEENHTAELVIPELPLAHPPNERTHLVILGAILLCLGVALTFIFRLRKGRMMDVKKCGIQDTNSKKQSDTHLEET

B1: p17 HIV matrix protein (natural protein)
chain: GARASVLSGGELDRWEKIRLRPGGKKKYKLKHIVWASRELERFAVNPGLLETSEGCRQILGQLQPSLQTGSEELRSLYNTVATLYCVHQRIEIKDTKEALDKIEEEQNKSKKKAQQAAADTGHSNQVSQNY
B1 showed a Kd of 0.3 nM.
